According to patent US20040248211A1, “ICAM-related protein” (priority 1992, published 2004):

Legend:
[1] = tested on: PBL; test: Pre-incubation on plate-bound antibody then SEA proliferation; format: cell-based, human; conditions: cells moved to clean wells; SEA 10 pg/ml, 3 days
Procedure: The minimum time required for plate-bound anti-ICAM-R to inhibit SEA-induced proliferation was also determined. PBL were pre-incubated on plate-bound ICR-4.2, ICR-1.1 or isotype-matched anti-HLA-I control antibodies B-H9 (IgG1) and I0T2 (IgG2) with or without SEA (10 ρg/ml) for 3, 5 and 7 hours. PBL were then transferred to clean wells and cultured in the presence of SEA (10 pg/ml) for 3 days.

[2] = tested on: SKW3 T cells; test: Homotypic aggregation assay, SKW3; format: cell-based, human; conditions: after four hours, Ig and Fab′ at 1 μg/ml
Procedure: Aggregation assays were done in duplicate, with and without addition of PMA (50 ng/ml). 3×10^5 cells in RPMI 1640 medium with 10% fetal calf serum were added in a flat-bottomed 96-well microtest plate. When one antibody was tested in an experiment, 50 μl of purified antibody or hybridoma supernatant were added to the wells (PMA was added at the same time to selected wells). When two antibodies were tested in the same experiment, the antibodies were added sequentially to the cells at room temperature and incubated for 30 minutes each (incubation for 15 minutes at 37° C. produced the same results), and then the cells were incubated at 37° C. […] After incubation with the antibody or antibodies, cells were uniformly resuspended and then incubated at 37° C. for 4 to 24 hours. Aggregation scoring was done with an inverted microscope. In each experiment, the efficacy of the PMA stimulation was checked in parallel by stimulating Raji cells with an equal amount of PMA and determining the amount of aggregation blockable by monoclonal antibodies to CD18, CD11 a, and ICAM-1 molecules.
To confirm that aggregation was induced by the anti-ICAM-R antibodies ICR-2.1, ICR-1.1, and ICR-3.1 the aggregation assays were performed using both the whole immunoglobulin (ICR-1.1-Ig) and Fab′ fragments (ICR-1.1-Fab′) purified from the same anti-ICAM-R monoclonal antibody (ICR-1.1). […]

[3] = biological target: T1, ICAM-R on PBL (Homo sapiens, UniProt P32942); test: FACS-based competition assay; format: binding; conditions: 5 μg antibody; equivalent on SKW3
T1 construct: endogenous in cells; host or cells: human peripheral blood leukocytes
T1 sequence (P32942 30-547): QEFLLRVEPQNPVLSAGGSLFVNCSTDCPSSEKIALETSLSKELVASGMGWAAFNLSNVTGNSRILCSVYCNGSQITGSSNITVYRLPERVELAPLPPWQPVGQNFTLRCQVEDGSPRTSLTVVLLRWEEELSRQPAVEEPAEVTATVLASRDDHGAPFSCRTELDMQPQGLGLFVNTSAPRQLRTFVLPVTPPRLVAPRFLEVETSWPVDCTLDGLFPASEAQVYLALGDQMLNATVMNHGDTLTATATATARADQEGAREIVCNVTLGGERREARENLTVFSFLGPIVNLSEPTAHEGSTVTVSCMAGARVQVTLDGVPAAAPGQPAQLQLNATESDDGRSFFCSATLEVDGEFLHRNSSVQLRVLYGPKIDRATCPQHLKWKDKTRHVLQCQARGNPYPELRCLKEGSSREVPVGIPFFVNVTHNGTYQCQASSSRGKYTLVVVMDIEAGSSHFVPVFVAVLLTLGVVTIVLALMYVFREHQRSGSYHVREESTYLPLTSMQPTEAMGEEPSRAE
Procedure: In the assays, human peripheral blood leukocytes (PBL) obtained by Ficoll Hypaque centrifugation of normal peripheral blood were washed twice in ice cold FACS buffer (PBS containing 0.1% sodium azide and 1% bovine serum albumin) and 2×10^5 cells were incubated in triplicate polypropylene tubes with 5 μg of each of the following antibodies ICR-1.1, ICR-4.2, and control isotype IgG (Sigma). All tubes containing the first stage antibodies were then incubated for 30 minutes at 4° C. and washed twice in cold FACS buffer. To each triplicate tube, 5 μg of each of the following second stage antibodies were added: biotinylated-ICR-1.1, biotinylated-ICR-4.2, biotinylated-anti-rat CD4 (negative control). All second stage antibodies were bibtinylated according to standard procedures as described in Example 12 and all tubes were then incubated for an additional 30 minutes at 4° C. before washing twice in FACS buffer. […] Finally, all tubes were washed twice in FACS buffer and analyzed by flow cytometry (FACScan, Becton-Dickinson).
SKW3 cells were labelled with either 1 μg of antibody ICR-1.1 or ICR-4.2, washed in FACS buffer and incubated with 1 μg biotinylated-ICR-1.1 or biotinylated ICR-4.2. All tubes were then washed in FACS buffer, incubated with Strepavidin-phycoerythrin for an additional 30 minutes at 4° C. and analyzed by FACScan.

[4] = tested on: resting PBLs; test: T cell receptor induced tyrosine phosphorylation after pretreatment; format: cell-based, human
Procedure: Briefly, resting PBLs were isolated and treated with ICR-1.1 or isotype matched control antibody as described above in Section I. After the cells were removed from antibody, they were washed one time in PBS, resuspended in PBS to a concentration of 1×10^6 cells/ml, and either treated or not treated with antisera to the T cell receptor (G19-4) for 2 minutes at 37° C. The cells were then spun down and lysed in boiling 2×SDS-sample buffer, boiled a further 5 minutes and resolved on 10% SDS-PAGE. Proteins were transferred to nitrocellulose and blotted with the 4G10 anti-phosphotyrosine antibody as described. […] This is consistent with the result that CD69 upregulation in these cells is also normal (Section L above), since CD69 expression requires PLC-gamma stimulated PKC activity and PLC-gamma activation requires tyrosine phosphorylation.

B1: ICR-1.1: anti-ICAM-R monoclonal antibody, IgG2a, domain 1, ATCC HB 11053 (antibody, V domains shown)
VH: QVQLQQSGAELAKPGASVKMSCKASGYTFTVYWMHWVKQRPGQGLEWIGYINPNTDYTEYNQRFQDKATLTADKSSSTAYMQLSSLTSEDSAVYYCARWGGNSYGLDYWGQGTSVTVSS
VL: QIVLTQSPALMSASPGEKVTMTCSASSSVSYIYWYQQKPRSSPKPWIYLTSNLASGVPARFSGSGSGASYSLTISIMEAEDAATYYCQQWKSIPLTFGAGTKLELK
With B1 the “SEA proliferation after 3 hours pre-incubation on immobilized antibody” value [1] was “significantly reduced proliferation”, the Aggregation [2] was 3 (50 to 100% cells were in loose clusters) and the “blocking of biotinylated-ICR-1.1 binding” value [3] was “did block binding of biotinylated-ICR-1.1”. The “blocking of biotinylated-ICR-4.2 binding” value [3] was “did not block binding of monoclonal antibody ICR-4.2” and the “tyrosine phosphorylation in response to G19-4 after pretreatment” value [4] was “there was an induction of tyrosine phosphorylation in response to G19-4 treatment”.
